Legend:
eed_mouse Eed = eed_mouse Eed (UniProt Q921E6)
eed_mouse Eed, sequence (Q921E6 whole entry, looked up): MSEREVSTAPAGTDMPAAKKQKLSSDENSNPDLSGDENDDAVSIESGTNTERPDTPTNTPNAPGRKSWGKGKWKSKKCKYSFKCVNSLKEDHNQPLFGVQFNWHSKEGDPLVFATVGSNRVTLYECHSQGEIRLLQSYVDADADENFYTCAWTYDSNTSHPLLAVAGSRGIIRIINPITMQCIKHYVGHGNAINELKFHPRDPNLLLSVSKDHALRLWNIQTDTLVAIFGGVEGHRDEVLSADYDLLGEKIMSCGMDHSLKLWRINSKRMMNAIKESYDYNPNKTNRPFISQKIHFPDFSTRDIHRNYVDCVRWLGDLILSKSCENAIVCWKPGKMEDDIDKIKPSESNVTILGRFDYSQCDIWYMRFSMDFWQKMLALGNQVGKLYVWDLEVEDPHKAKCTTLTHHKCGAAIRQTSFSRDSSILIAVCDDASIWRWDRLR

Polycomb protein EED (Mus musculus), Q921E6 L246E, sequence (Q921E6 whole entry L246E): as the sequence (Q921E6 whole entry, looked up) above, with L246E counted along it
Ezh2, Q61188-1, sequence (Q61188 whole entry): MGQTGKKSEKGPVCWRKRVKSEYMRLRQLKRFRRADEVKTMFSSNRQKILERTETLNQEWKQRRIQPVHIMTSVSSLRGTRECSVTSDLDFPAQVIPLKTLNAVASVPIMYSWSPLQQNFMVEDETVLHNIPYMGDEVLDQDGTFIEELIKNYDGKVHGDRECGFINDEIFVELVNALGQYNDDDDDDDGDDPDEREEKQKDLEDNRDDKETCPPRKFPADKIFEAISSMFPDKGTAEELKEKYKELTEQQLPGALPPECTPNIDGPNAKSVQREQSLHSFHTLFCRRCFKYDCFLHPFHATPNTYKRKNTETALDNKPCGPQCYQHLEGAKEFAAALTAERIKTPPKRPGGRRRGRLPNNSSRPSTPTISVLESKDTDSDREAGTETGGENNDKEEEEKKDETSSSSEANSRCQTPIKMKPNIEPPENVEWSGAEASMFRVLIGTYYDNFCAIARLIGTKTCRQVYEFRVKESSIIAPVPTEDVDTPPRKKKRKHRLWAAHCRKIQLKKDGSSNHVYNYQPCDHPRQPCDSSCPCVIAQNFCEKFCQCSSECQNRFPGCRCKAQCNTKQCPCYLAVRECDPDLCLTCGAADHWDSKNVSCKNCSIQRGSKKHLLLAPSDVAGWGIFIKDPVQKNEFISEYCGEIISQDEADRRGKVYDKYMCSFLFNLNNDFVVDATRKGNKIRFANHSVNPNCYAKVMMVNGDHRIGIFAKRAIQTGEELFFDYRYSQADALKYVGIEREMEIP

| Substance | effect of a mutation on the interaction (eed_mouse Eed) | effect of a mutation on the interaction (Ezh2, Q61188-1) |
| --- | --- | --- |
| Histone-lysine N-methyltransferase EZH2 (Mus musculus), Q61188-1 F42D | disrupting interaction |  |
| Histone-lysine N-methyltransferase EZH2 (Mus musculus), Q61188-1 I49E | disrupting interaction |  |
| Histone-lysine N-methyltransferase EZH2 (Mus musculus), Q61188-1 L56E | disrupting interaction |  |
| Histone-lysine N-methyltransferase EZH2 (Mus musculus), Q61188-1 N45A | disrupting interaction |  |
| Histone-lysine N-methyltransferase EZH2 (Mus musculus), Q61188-1 P67D | disrupting interaction |  |
| Polycomb protein EED (Mus musculus), Q921E6 L246E |  | disrupting interaction |

Source: IntAct's records for PubMed 17937919
